This passage reports Kd results from PMC3856478 (2013).

The assay deals with T1, Colicin E9 OBS1 peptide 2-18 (Escherichia coli, UniProt P09883).
T1 chain: SGGDGRGHNTGAHSTSG
Nature of the assay: ITC. A general note: ITC needs no label: the signal is the heat of the interaction.

B1: OmpF (protein)
chain: AEIYNKDGNKVDLYGKAVGLHYFSKGNGENSYGGNGDMTYARLGFKGETQINSDLTGYGQWEYNFQGNNSEGADAQTGNKTRLAFAGLKYADVGSFDYGRNYGVVYDALGYTDMLPEFGGDTAYSDDFFVGRVGGVATYRNSNFFGLVDGLNFAVQYLGKNERDTARRSNGDGVGGSISYEYEGFGIVGAYGAADRTNLQEAQPLGNGKKAEQWATGLKYDANNIYLAANYGETRNATPITNKFTNTSGFANKTQDVLLVAQYQFDFGLRPSIAYTKSKAKDVEGIGDVDLVNYFEVGATYYFNKNMSTYVDYIINQIDSDNKLGVGSDDTVAVGIVYQF
For the molecule B1, the Kd (usually the equilibrium constant for the complex coming apart) was roughly 1000 nM.
